# Measured values reported in US20190071490A1 (BETH ISRAEL DEACONESS MEDICAL CENTER, published 2019).
# Positions count from the first letter of the chain named.
# T1: human α-CGRP 1-37 (WT) (human, C-terminal amide; N-terminal biotin when captured on the SA chip; 125I-labelled in the radioligand assay)
# T1 construct: also called α-human
# T1 peptide: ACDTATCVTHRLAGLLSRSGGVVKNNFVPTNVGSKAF
# T2: rat α-CGRP (1-37) (rat, C-terminal amide; N-terminal biotin when captured on the SA chip)
# T2 construct: also called rat α (1-37); α-rat
# T2 peptide: T1 peptide with A1S, D3N, N25D, K35E
# B1: G1 variant M1 Fab (Fab, V domains shown)
# VH: EVQLVESGGGLVQPGGSLRLSCAASGFTFSNYWISWVRQAPGKGLEWVAEIRSESDASATHYAEAVKGRFTISRDNAKNSLYLQMNSLRAEDTAVYYCLLYFDYGLAIQNYWGQGTLVTVSS
# VL: EIVLTQSPATLSLSPGERATLSCKASKRVTTYVSWYQQKPGQAPRLLIYGASNRYLGIPARFSGSGSGTDFTLTISSLEPEDFAVYYCSQSYNYPYTFGQGTKLEIK
# notes: Fab; constant domains as m1
# B2: G1 variant M3 Fab (Fab, V domains shown)
# VH: B1 VH with L99A, L100S
# VL: B1 VL
# notes: Fab; constant domains as m1
# B3: G1 variant M14 Fab (Fab, V domains shown)
# VH: B1 VH with L99T, L100K
# VL: B1 VL
# notes: Fab; constant domains as m1
# B4: G1 variant M7 Fab (Fab, V domains shown)
# VH: B1 VH with L99N, L100C
# VL: B1 VL
# notes: Fab; constant domains as m1
# B5: G1 variant M4 Fab (Fab, V domains shown)
# VH: B1 VH with L99A, L100V
# VL: B1 VL
# notes: Fab; constant domains as m1
# B6: G1 variant M8 Fab (Fab, V domains shown)
# VH: B1 VH with L99N, L100G
# VL: B1 VL
# notes: Fab; constant domains as m1
# B7: G1 variant M9 Fab (Fab, V domains shown)
# VH: B1 VH with L99N, L100Y
# VL: B1 VL
# notes: Fab; constant domains as m1
# B8: G1 variant M5 Fab (Fab, V domains shown)
# VH: B1 VH with L99A, L100Y
# VL: B1 VL
# notes: Fab; constant domains as m1
# B9: G1 variant M10 Fab (Fab, V domains shown)
# VH: B1 VH with L99S, L100S
# VL: B1 VL
# notes: Fab; constant domains as m1
# B10: G1 variant M12 Fab (Fab, V domains shown)
# VH: B1 VH with L99S, L100V
# VL: B1 VL
# notes: Fab; constant domains as m1
# B11: G1 variant M2 Fab (Fab, V domains shown)
# VH: B1 VH with L99A, L100R
# VL: B1 VL
# notes: Fab; constant domains as m1
# B12: G1 variant M6 Fab (Fab, V domains shown)
# VH: B1 VH with L99N, L100A
# VL: B1 VL
# notes: Fab; constant domains as m1
# B13: G1 variant M11 Fab (Fab, V domains shown)
# VH: B1 VH with L99S, L100T
# VL: B1 VL
# notes: Fab; constant domains as m1
# B14: G1 variant M19 Fab (Fab, V domains shown)
# VH: B1 VH with L99V, L100R
# VL: B1 VL
# notes: Fab; constant domains as m1
# Target: T1, human α-CGRP 1-37 (WT)
# Test: Biacore, 37°C, Fab over CGRP on SA chip
# Procedure: (§1) Biacore assay for affinity determination. […] All Biacore assays were conducted in HBS-EP running buffer (10 mM HEPES pH 7.4, 150 mM NaCl, 3 mM EDTA, 0.005% v/v polysorbate P20). CGRP surfaces were prepared by diluting the N-biotinylated CGRP to a concentration of less than 0.001 mg/mL into HBS-EP buffer and injecting it across the SA sensor chip using variable contact times. […] Samples were typically injected for 1 minute at 100 μL/min and dissociation times of at least 10 minutes were allowed. […] An entire titration series (typically generated in duplicate) was fit globally to a 1:1 Langmuir binding model using the BIAevaluation program. This returned a unique pair of association and dissociation kinetic rate constants (respectively, kₒₙ and koff) for each binding interaction, whose ratio gave the equilibrium dissociation constant (KD=koff/kₒₙ). […]
koff [s⁻¹],Kd [nM],Binder
0.000173,,B1
0.00021,1.7,B2
≤ 1e-05,≤ 0.06,B3
0.000243,1.52,B4
6.95e-05,0.43,B5
9.2e-05,0.58,B6
≤ 1e-05,≤ 0.06,B7
3.22e-05,0.2,B8
0.000173,1.08,B9
0.000101,0.63,B10
0.00031,3,B11
0.000133,0.83,B12
0.000283,1.77,B13
≤ 1e-05,≤ 0.06,B14

# Target: T2, rat α-CGRP (1-37)
# Test: Biacore, 37°C, Fab over CGRP on SA chip
# Procedure: as §1
koff [s⁻¹],Kd [nM],Binder
0.0011,,B1
0.002,61,B2
0.000918,51,B4
0.00152,84.4,B5
0.000745,41.4,B6
0.000735,40.8,B8
0.00151,83.9,B9
0.00194,108,B10
0.0026,58,B11
0.000784,43.6,B12
0.00483,268,B13
